Source: article PMC3073974, “A Model of a MAPK•Substrate Complex in an Active Conformation: A Computational and Experimental Approach” (PLoS ONE, 2011)
One block for each molecule: values may come before it. Residues, ends and D or L forms follow the SMILES beside them.

Experiments:
ERK2 [1] = biological target: T1, ERK2 (Rattus norvegicus, UniProt P63086); experiment: Steady-state kinetics: inhibition of Ets phosphorylation by ERK2; format: biochemical; conditions: 1 mM MgATP
T1 construct: made in house
T1 sequence (P63086 whole entry): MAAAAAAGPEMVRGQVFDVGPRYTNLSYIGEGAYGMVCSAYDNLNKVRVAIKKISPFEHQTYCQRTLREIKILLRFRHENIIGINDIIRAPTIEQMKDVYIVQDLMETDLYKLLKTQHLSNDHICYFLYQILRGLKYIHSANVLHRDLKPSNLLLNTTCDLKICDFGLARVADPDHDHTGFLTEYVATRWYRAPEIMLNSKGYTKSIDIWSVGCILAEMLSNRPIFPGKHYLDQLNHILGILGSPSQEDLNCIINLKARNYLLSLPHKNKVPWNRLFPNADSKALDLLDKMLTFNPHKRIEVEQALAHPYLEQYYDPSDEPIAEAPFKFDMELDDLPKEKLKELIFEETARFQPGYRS
Description: Activated tagless ERK2 was generated essentially as described in (Kaoud, T.S. et al. manuscript in preparation). Expression and purification of Ets-1 (1-138) was followed by the method described in the previously published literature.
(§1) zReactions were carried out at 27°C in kinase assay buffer (25 mM HEPES pH 7.4, 100 mM KCl, 2 mM DTT, 40 µg/mL BSA, and 20 mM MgCl2) containing 2 nM ERK2 and varied concentrations of substrates and inhibitors. Rates were measured under conditions where total product formation represented less than 10% of the initial substrate concentrations. The reaction was incubated for 10 min before initiation by addition of enzyme and quantified as described previously. Initial rates were determined by linear least squares fitting to plots of product against time. Reciprocal plots of 1/v against 1/s were checked for linearity, before the data were fitted to eqn. 1 using a non-linear least squares approach, assuming equal variance for velocities, using the program Kaleidagraph 3.5 (Synergy software). The intercepts [drawing 1] and slopes [drawing 2] obtained from these fits were then plotted against either the inhibitor concentration (i) (for inhibition experiments) or the reciprocal of the non-varied substrate concentration (1/s) (for initial velocity experiments). These plots were used to determine the appearance of the overall kinetic equation. Values for kinetic constants were then obtained using the program Scientist (Micromath) by fitting the kinetic data to the relevant over-all equation. Data conforming to a sequential initial velocity pattern were fitted to eqn 2; data conforming to linear competitive inhibition were fitted to eqn. 3; data conforming to hyperbolic mixed inhibition were fitted to eqn. 4. Dose-response curves for data conforming to linear inhibition were fitted to eqn. 5; and for data conforming to hyperbolic inhibition to eqn. 6. [drawing 3] (1) [drawing 4] (2) [drawing 5] (3) [drawing 6] (4) [drawing 7] (5) [drawing 8] (6)

ERK2 [2] = biological target: T1, ERK2; experiment: Steady-state kinetics: inhibition of Δ23N-Ets phosphorylation by ERK2; format: biochemical; conditions: Δ23N-Ets 50 µM, 1 mM MgATP, Lig-D 0–200 µM (eqn 6) or Lig-F 0–400 µM (eqn 5); fitted k0 5.5±0.1 s^−1 (Lig-D), 5.4±0.1 s^−1 (Lig-F); read-out: K50, concentration giving half the maximal change in kobs for phosphorylation of Δ23N-Ets
Description: as §1, with “Data conforming to a sequential initial velocity pattern were fitted to eqn 2; data conforming to linear competitive inhibition were fitted to eqn. 3; data conforming to hyperbolic mixed inhibition were fitted to eqn. 4. Dose-response curves for data conforming to linear inhibition were fitted to eqn. 5; and for data conforming to hyperbolic inhibition to eqn. 6. [drawing 3] (1) [drawing 4] (2) [drawing 5] (3) [drawing 6] (4) [drawing 7] (5) [drawing 8] (6)” left out

ERK2 [3] = biological target: T1, ERK2; experiment: Steady-state parameters for phosphorylation of Ets and N-terminal Ets mutants by ERK2; format: biochemical; conditions: phosphorylation by ERK2 (2 nM), 27°C
Description: pET-28a Ets was PCR amplified with a forward primer containing an NdeI site (encoding the initial methionine) followed by the codon encoding Phe-24 (5′-GG GAATTCCATATGTTCCCTTCCCCGGACATG-3′) and an outer reverse primer (5′-GCTAGTTATTGCTCAGCGGTGG-3′) using the following PCR conditions: 94°C for 5 min to denature the complementary strands; 30 cycles of 55°C for 30 sec to anneal the primers, extension for 1 min at 72°C, followed by a denaturation step at 94°C for 45 sec; complementary strands were extended a final 10 min at 72°C. The N-terminal mutant PCR product was digested with NdeI and HindIII and ligated into NdeI-HindIII digested pET-28a. All proteins produced from pET-28a have an N-terminal sequence of […]- prior to the initial methionine encoded by the Ets cDNA giving EtsΔ24-138 an approximate mass of 15, 391 Da whereas Ets 1-138 has a mass of 17, 681 Da (lacking the initial methionine).
pET28a-Ets was modified by overlap extension polymerase chain reaction to construct the single cysteine mutant of Ets (C99A/C106A/C112A) in an Ets S26A background as reported elsewhere. Mutations were produced by a single-step PCR reaction using the following PCR amplification reaction (50 µL) contained Phusion DNA polymerase GC buffer, 200 µM each of the four deoxynucleoside triphosphates, 2 mM MgCl2, 3% DMSO, 80 ng of template DNA (Ets-C31 pET28a vector), 0.5 µM primers forward and reverse, and 1 µL of Phusion DNA polymerase (Finnzymes, USA, Product # F-530-S). […]
zReactions were carried out at 27°C in kinase assay buffer (25 mM HEPES pH 7.4, 100 mM KCl, 2 mM DTT, 40 µg/mL BSA, and 20 mM MgCl2) containing 2 nM ERK2 and varied concentrations of substrates and inhibitors. Rates were measured under conditions where total product formation represented less than 10% of the initial substrate concentrations. The reaction was incubated for 10 min before initiation by addition of enzyme and quantified as described previously. Initial rates were determined by linear least squares fitting to plots of product against time. […]

ERK2 [4] = biological target: T1, ERK2; conditions: stopped-flow; cited from earlier work
Excerpt: Since the seminal paper by Wright the role of intrinsically disordered regions of proteins has been a topic of great interest. […] In fact, many docking sites for the DRS of a MAPK are found at the extreme termini of MAPK ligands, such as the upstream activators the MKKs, and may be disordered. For examp ...

[5] = fit of Lig-D inhibition data (Fig. 5D), eqn 4, Ets 3–59 µM
[6] = fit of Lig-F inhibition data (Fig. 5B), eqn 3, Ets 2–12 µM
[7] = 25 mM HEPES pH 7.4, 100 mM KCl, 20 mM MgCl2

IC50 (ERK2 [1]; Ets 6.4 µM, peptide 0–400 µM, 2 nM ERK2, 27°C, HEPES pH 7.4, fit eqn 6 (Lig-D, partial) or eqn 5 (Lig-F, full), fitted k0 8.0±0.2 s^−1 (Lig-D), 10.3±0.2 s^−1 (Lig-F), read-out: K50, concentration giving half the maximal change in kobs for phosphorylation of Ets): 33.5 ± 1.9 µM | Ki (ERK2 [1]; Lig-F 0–200 µM, Ets 2–12 µM, fit eqn 3, read-out: apparent competitive inhibition constant (Ki), full linear competitive inhibition vs Ets): 22 ± 1.9 µM | IC50 (ERK2 [2]): 43 ± 2 µM
Molecule: CC(=O)N[C@@H](Cc1ccc(O)cc1)C(=O)N[C@@H](C)C(=O)N1CCC[C@H]1C(=O)N[C@@H](CCCNC(=N)N)C(=O)N[C@@H](C)C(=O)N1CCC[C@H]1C(=O)N[C@@H](C)C(=O)N[C@@H](CCCCN)C(=O)N[C@@H](CC(C)C)C(=O)N[C@@H](C)C(=O)N[C@@H](Cc1ccccc1)C(=O)N[C@@H](CCC(N)=O)C(=O)N[C@@H](Cc1ccccc1)C(=O)N1CCC[C@H]1C(=O)N[C@@H](CO)C(=O)N[C@@H](CCCNC(=N)N)C(N)=O [Lig-F] (Ac-YAPRAPAKLAFQFPSR-NH2)

apparent Michaelis constant for Ets (ERK2 [1]; [5]): 6.3 ± 1.7 µM | apparent catalytic constant for Ets phosphorylation (ERK2 [1]; [5]): 14.1 ± 1.3 s⁻¹ | apparent Michaelis constant for Ets (ERK2 [1]; [6]): 5.6 ± 0.7 µM | apparent catalytic constant for Ets phosphorylation (ERK2 [1]; [6]): 14.9 ± 0.8 s⁻¹
B1: Ets: His-tagged murine Ets-1 residues 1-138, ERK2 substrate; N-terminus MKAAVDLKPTLTII (protein, UniProt P27577 1-138, looked up, fragment)
chain: MKAAVDLKPTLTIIKTEKVDLELFPSPDMECADVPLLTPSSKEMMSQALKATFSGFTKEQQRLGIPKDPRQWTETHVRDWVMWAVNEFSLKGVDFQKFCMSGAALCALGKECFLELAPDFVGDILWEHLEILQKEDVK
modifications: His tag
k cat/K m (ERK2 [3]; 25 mM HEPES pH 7.4): 1e+06 M⁻¹ s⁻¹ | K m (ERK2 [3]; [7]): 17.0 ± 4.0 µM | k cat (ERK2 [3]; [7]): 18.0 ± 2.0 s⁻¹

B2: phospho Ets: Ets phosphorylated by ERK2 (on Thr-38), product of the reaction (protein, UniProt P27577 1-138, looked up, fragment)
chain: MKAAVDLKPTLTIIKTEKVDLELFPSPDMECADVPLLTPSSKEMMSQALKATFSGFTKEQQRLGIPKDPRQWTETHVRDWVMWAVNEFSLKGVDFQKFCMSGAALCALGKECFLELAPDFVGDILWEHLEILQKEDVK
modifications: phosphorylated Thr38; His tag
notes: Ets phosphorylated by ERK2 (on Thr-38), product of the reaction
rate constant for association k on (ERK2 [4]): 5e+06 M⁻¹ s⁻¹ | rate constant for dissociation k (ERK2 [4]): > 100 s⁻¹
